Residue numbers refer to the chain shown, from its start. In names and notes the source's numbering stands.
T1: human gamma common chain expressed on CHO cells (human, UniProt P31785 23-369)
T1 construct: whole, on cells; Control protein; also called human IL-2R-γ common subunit; human gamma (γ) common chain
T1 sequence (looked up): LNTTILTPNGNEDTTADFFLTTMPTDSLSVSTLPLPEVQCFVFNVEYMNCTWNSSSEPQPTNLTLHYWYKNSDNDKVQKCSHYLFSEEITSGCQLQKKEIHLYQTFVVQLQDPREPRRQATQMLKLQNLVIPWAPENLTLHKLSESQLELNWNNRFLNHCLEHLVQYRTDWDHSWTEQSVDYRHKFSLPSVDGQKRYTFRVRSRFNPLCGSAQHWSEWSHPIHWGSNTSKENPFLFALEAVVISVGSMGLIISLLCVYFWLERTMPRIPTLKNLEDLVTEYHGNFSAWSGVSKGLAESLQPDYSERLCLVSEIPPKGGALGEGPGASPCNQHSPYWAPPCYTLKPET

T2: human IL-2Rβ (human, UniProt P14784 27-239)
T2 construct: Bought
T2 sequence (looked up): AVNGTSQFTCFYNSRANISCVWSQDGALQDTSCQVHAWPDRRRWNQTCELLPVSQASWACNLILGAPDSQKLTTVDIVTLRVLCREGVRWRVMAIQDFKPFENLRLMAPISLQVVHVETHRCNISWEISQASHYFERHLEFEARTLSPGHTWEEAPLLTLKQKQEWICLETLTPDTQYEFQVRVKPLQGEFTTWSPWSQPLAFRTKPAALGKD

B1: AbO (antibody, human IgG1, V domains shown)
VH: QVQLQESGPGLVKPSETLSLTCAVSGYSISSGYYWGWIRQPPGKGLEWIGSISHTGNTYYNPPLKSRVTISVDTSKNQFSLKLSSVTAADTAVYYCARGGGISRPEYWGQGTLVTVSS
VL: SSELTQDPAVSVALGQTVRITCQGDSLRTYYASWYQQKPGQAPVLVIYGKHKRPSGIPDRFSGSSSGNTASLTITGAQAEDEADYYCVTRSAKGNPHVLFGGGTQLTVL
notes: Human IgG1 triple-mutant (L234A, L235A, G237A); Framework limits derived; also called VHP/VL16; VHPTM/VL16
B2: AbU (antibody, human IgG1, V domains shown)
VH: B1 VH
VL: B1 VL with V88T, A92N
notes: Human IgG1 triple-mutant (L234A, L235A, G237A); Framework limits derived; also called VHP/VL25; VHPTM/VL25
B3: AbQ (antibody, human IgG1, V domains shown)
VH: B1 VH with G99F, G100M, I102F, S103G
VL: B1 VL with T89A, A92V, K93V
notes: Purified form: human IgG1 double-mutant (L234A, G237A); Framework limits derived; also called VH3/VL2; VH3DM/VL2
B4: AbL (antibody, human IgG1, V domains shown)
VH: B1 VH with G99F, G100M, I102F, S103G
VL: B1 VL with S91N, A92R, K93Y
notes: Full-length human IgG1 / human lambda, transient, conditioned medium; Framework limits derived; also called VH3/VL13
B5: AbD (antibody, human IgG1, V domains shown)
VH: B1 VH
VL: B1 VL with S91N, A92R, K93Y
notes: Full-length human IgG1 / human lambda, transient, conditioned medium; Framework limits derived; also called VHP/VL13
B6: murine IL-21R-Fc (Fc fusion, not shown: a dimerising Fc or GST)
chain: not shown

biological target: T3, murine IL-21R expressed on cells (murine, UniProt Q9JHX3 20-529); experiment: cell-based or functional assay
T3 sequence (Q9JHX3 20-529 limits assumed): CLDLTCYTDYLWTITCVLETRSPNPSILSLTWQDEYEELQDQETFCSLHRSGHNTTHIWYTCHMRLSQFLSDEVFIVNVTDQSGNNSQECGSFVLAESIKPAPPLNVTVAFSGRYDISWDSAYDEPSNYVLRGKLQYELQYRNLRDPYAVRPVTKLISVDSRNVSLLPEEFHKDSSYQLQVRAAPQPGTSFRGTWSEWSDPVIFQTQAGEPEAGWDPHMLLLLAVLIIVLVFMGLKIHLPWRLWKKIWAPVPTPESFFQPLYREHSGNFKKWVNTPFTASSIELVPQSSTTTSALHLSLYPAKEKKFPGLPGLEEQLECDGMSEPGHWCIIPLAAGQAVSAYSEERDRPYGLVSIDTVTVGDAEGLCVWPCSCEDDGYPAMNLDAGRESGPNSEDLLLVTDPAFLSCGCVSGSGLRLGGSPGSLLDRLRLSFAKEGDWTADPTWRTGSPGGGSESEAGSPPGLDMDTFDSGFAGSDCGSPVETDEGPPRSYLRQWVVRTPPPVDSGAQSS

| Binder | Neutralization of T cell Proliferation IC50 (nM), murine primary CD8+ T cells [nM] |
| --- | --- |
| B1 | 4.92 |
| B2 | 1.79 |
| B3 | 0.85 |

biological target: T4, cynomolgus monkey IL-21R expressed on CHO cells (cynomolgus monkey); experiment: cell ELISA: CHO cells transiently expressing the receptor, antibody in conditioned medium, HRP anti-human IgG, A450
T4 construct: whole, on cells
Protocol: (§1) A subset of binding proteins was tested for binding to rat, cynomolgus monkey, human IL-21R, or human IL-2R-γ common subunit expressed transiently on the surfaces of CHO-PA-Dukx cells. Cells were transfected 48 hr prior to the assay. On the day of the assay, cells were washed gently 5× in PBS containing 0.9 mM CaCl₂ and 0.45 mM MgCl₂ (PBS/CaMg) on an automated plate washer (Titertek, Huntsville, Ala.), and blocked for 1 hr at RT in PBS/CaMg/5% nonfat dry milk. Conditioned media from transiently expressed anti-IL-21R IgGs were serially diluted in blocking buffer and added to the cells in the blocked plates for 1 hr at RT. Cells were washed 5× with PBS/CaMg and then incubated with horseradish peroxidase-conjugated anti-human IgG for 1 hr at RT. Cells were then washed 10× in PBS/CaMg and all of the wash buffer was removed. Cells were incubated with 100 μl TMB until the color reaction reached saturation, stopped with 100 μl of 0.18 M H₂SO₄, and read at A450 on a Perkin Elmer ENVISION™ plate reader.

| Binder | EC50 (read off the curve) [nM] |
| --- | --- |
| B4 | ~0.8 |
| B3 | ~0.6 |

biological target: T1, human gamma common chain expressed on …; experiment: cell ELISA on transfected CHO cells, 13 nM IgG
Protocol: as §1

| Binder | A450 at 13 nM Ab in cell ELISA [A450] |
| --- | --- |
| B1 | 0.108 |
| B2 | 0.104 |
| B3 | 0.125 |

biological target: T5, human IL-21R expressed on cells (human, UniProt Q9HBE5 20-538); experiment: cell ELISA on transfected CHO cells, 13 nM IgG
T5 construct: Transfected BaF3, TF1 and CHO cells; also native on primary human B and CD4+ T cells; also called hIL-21R; human IL-21R-BaF3 cells
Protocol: as §1

T5 sequence (Q9HBE5 20-538 limits assumed): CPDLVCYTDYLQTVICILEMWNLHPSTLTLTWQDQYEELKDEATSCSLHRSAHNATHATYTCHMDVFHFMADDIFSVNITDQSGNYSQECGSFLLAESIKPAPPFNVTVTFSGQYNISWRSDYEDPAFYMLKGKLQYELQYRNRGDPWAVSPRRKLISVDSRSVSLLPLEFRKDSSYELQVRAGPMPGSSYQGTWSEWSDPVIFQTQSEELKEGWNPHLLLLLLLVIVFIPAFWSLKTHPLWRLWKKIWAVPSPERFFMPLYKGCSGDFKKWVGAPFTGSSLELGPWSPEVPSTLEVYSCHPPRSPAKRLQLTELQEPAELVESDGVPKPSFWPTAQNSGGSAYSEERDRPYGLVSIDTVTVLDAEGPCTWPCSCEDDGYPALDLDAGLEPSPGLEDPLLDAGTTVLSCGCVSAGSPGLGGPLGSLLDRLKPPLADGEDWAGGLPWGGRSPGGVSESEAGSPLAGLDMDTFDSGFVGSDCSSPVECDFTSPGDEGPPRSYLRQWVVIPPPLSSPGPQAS

| Binder | A450 at 13 nM Ab in cell ELISA [A450] |
| --- | --- |
| B5 | 1.25 |
| B1 | 1.11 |
| B4 | 1.45 |
| B2 | 1.29 |
| B3 | 1.25 |

biological target: T4, cynomolgus monkey IL-21R expressed on …; experiment: cell ELISA on transfected CHO cells, 13 nM IgG
Protocol: as §1

| Binder | A450 at 13 nM Ab in cell ELISA [A450] |
| --- | --- |
| B5 | 1.38 |
| B1 | 1.36 |
| B4 | 1.51 |
| B2 | 1.31 |
| B3 | 1.31 |

biological target: T6, rat IL-21R expressed on cells (rat); experiment: cell ELISA on transfected CHO cells, 13 nM IgG
T6 construct: whole, on cells; Transiently transfected CHO-PA-Dukx cells
Protocol: as §1

| Binder | A450 at 13 nM Ab in cell ELISA [A450] |
| --- | --- |
| B5 | 0.874 |
| B1 | 1.1 |
| B4 | 1.26 |
| B2 | 0.927 |
| B3 | 1.16 |

biological target: T5, human IL-21R expressed on cells; experiment: cell ELISA: CHO cells transiently expressing the receptor, antibody in conditioned medium, HRP anti-human IgG, A450
Protocol: (§2) FIG. 6 depicts the binding of 21 anti-IL-21R IgGs to CHO cells transiently expressing human IL-21R (FIGS. 6a-c), rat IL-21R (FIGS. 6d-f), cynomolgus monkey IL-21R (FIGS. 6g-i), and human gamma common chain (FIGS. 6j-l). CHO cells were transiently transfected with IL-21R or the control gamma common chain, and binding was detected with HRP-conjugated anti-human IgG in a cell-based ELISA.
as §1

| Binder | EC50 (read off the curve) [nM] |
| --- | --- |
| B5 | ~1 |
| B1 | ~0.3 |

biological target: T4, cynomolgus monkey IL-21R expressed on …; experiment: as above; remark: another data set of the same source
Protocol: as §2, §1

| Binder | EC50 (read off the curve) [nM] |
| --- | --- |
| B2 | ~0.8 |

biological target: T5, human IL-21R expressed on cells; experiment: cell-based or functional assay

| Binder | Neutralization of B cell proliferation IC50 [nM] |
| --- | --- |
| B2 | 0.13 |
| B3 | 0.16 |

biological target: murine IL-21 (murine, UniProt Q9ES17 18-146); experiment: cell-based or functional assay

| Binder | Murine IL-21R-BaF3 Neutralization IC50 [nM] |
| --- | --- |
| B6 | 0.04 |

biological target: T7, human soluble IL-4R (human, UniProt P24394 26-231, limits assumed); experiment: BIACORE: antibody captured on anti-human IgG, 50 nM analyte injected
T7 construct: soluble; also called human sIL-4R
Protocol: (§3) The specificity of binding of a subset of transiently expressed anti-IL-21R binding proteins (here antibodies) was tested on a BIACORE™ 2000 surface plasmon resonance instrument. Anti-human-IgG, anti-murine immunoglobulin antibodies, and murine IL-21R-H/F were immobilized onto a research-grade carboxymethyl-dextran chip (CM5) using standard amine coupling. The sensor chip surface was activated with EDC/NHS for 7 min at a flow rate of 20 μl/min. The first flow cell was used as reference surface to correct for bulk refractive index, matrix effects, and nonspecific binding. […] Remaining activated groups were blocked with 1.0 M ethanolamine (pH 8.0). The molecular weights of the anti-human IgG and the anti-murine IgG were both 150 kD, and the molecular weight of the IL-21R monomer was 27 kD.
(§4) Conditioned media containing anti-IL-21R antibodies and antibody controls (murine anti-human IL-2Rβ and murine anti-human IL-4R(R&D Systems, Minneapolis, Minn.); human anti-human IL-13 (Wyeth, Cambridge, Mass.)) were diluted in HBS/EP buffer supplemented with 0.2% bovine serum and injected onto all four flow cells of the BIACORE™ chip, capturing 500-700 (RU) of antibody on the species-appropriate capture antibody. Following a 5 sec washing period, 50 nM solutions of a positive control protein (murine IL-21R-H/F), two human proteins related to IL-21R (human IL-2Rβ and human sIL-4R(R&D Systems)), or an unrelated His/FLAG-tagged protein (human IL-13-H/F), were injected over the captured antibodies on the chip. The association and dissociation phases were monitored for 120 and 180 sec, respectively, followed by two 5 μl injections of glycine (pH 1.5) to regenerate a fully active capturing surface. All binding experiments were done at 25° C. in HBS/EP buffer. Blank and buffer effects were subtracted for each sensorgram using double referencing.

T7 sequence (P24394 26-231 limits assumed): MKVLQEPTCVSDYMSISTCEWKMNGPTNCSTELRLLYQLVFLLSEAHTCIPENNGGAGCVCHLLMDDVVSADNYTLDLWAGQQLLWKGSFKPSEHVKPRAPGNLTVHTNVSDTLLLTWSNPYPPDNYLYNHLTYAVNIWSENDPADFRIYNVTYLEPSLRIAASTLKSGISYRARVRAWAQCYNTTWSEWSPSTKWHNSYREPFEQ

| Binder | binding result |
| --- | --- |
| B1 | no binding (tested: 50 nM) |
| B2 | no binding (tested: 50 nM) |
| B3 | no binding (tested: 50 nM) |

biological target: T2, human IL-2Rβ; experiment: as above
Protocol: as §3, §4

| Binder | binding result |
| --- | --- |
| B1 | no binding (tested: 50 nM) |
| B2 | no binding (tested: 50 nM) |
| B3 | no binding (tested: 50 nM) |

biological target: T8, human IL-13-His/FLAG (human, UniProt P35225 35-146, limits assumed); experiment: as above
T8 construct: Unrelated His/FLAG-tagged control; also called human IL-13-H/F
Protocol: as §3, §4

T8 sequence (P35225 35-146 limits assumed): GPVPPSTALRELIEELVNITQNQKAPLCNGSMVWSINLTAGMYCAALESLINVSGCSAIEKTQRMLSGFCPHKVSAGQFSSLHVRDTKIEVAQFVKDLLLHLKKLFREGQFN

| Binder | binding result |
| --- | --- |
| B1 | no binding (tested: 50 nM) |
| B2 | no binding (tested: 50 nM) |
| B3 | no binding (tested: 50 nM) |

biological target: T6, rat IL-21R expressed on cells; experiment: cell-based or functional assay

| Binder | IC50 (nM) experiment 1, rat T cell proliferation [nM] | IC50 (nM) experiment 2, rat T cell proliferation [nM] |
| --- | --- | --- |
| B2 | 173 | 105 |

biological target: T5, human IL-21R expressed on cells; experiment: cell-based or functional assay; remark: another data set of the same source

| Binder | Neutralization of T cell Proliferation IC50 (nM), human primary CD4+ T cells [nM] |
| --- | --- |
| B1 | 0.06 |
| B2 | 0.03 |
| B3 | 0.08 |

biological target: T5, human IL-21R expressed on cells; experiment: cell-based or functional assay; remark: another data set of the same source

| Binder | Human IL-21R-BaF3 Proliferation IC50 [nM] | Human IL-21R-TF1 Proliferation IC50 [nM] |
| --- | --- | --- |
| B5 | 0.91 | 2.67 |
| B1 | 0.52 | 2.91 |
| B4 | 0.68 | 4.25 |
| B2 | 0.73 | 3.13 |
| B3 | 0.68 | 4.62 |

biological target: T3, murine IL-21R expressed on cells; experiment: cell-based or functional assay; remark: another data set of the same source

| Binder | Murine IL-21R-BaF3 Proliferation IC50 [nM] |
| --- | --- |
| B5 | 0.01 |
| B1 | 0.065 |
| B4 | 0.227 |
| B2 | 0.184 |
| B3 | 0.153 |

Reference: patent US20090298167A1 (Pfizer, published 2009)
